Test results as given in the supplement of paper PMC9876800.

Test system: peptide library, one residue held at a place counted from the S/T acceptor
Assay: relative phosphorylation of the sub-library (ratio to the mean residue at this position); higher = residue favoured
Settings: human
Procedure, shortened: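 Spots on streptavidin membranes were phosphorimaged and quantified by densitometry to measure phosphorylation of biotinylated degenerate peptide sub-libraries by purified recombinant kinases, human or orthologue constructs. The reactions ran in 384-well plates for 90 min under kinase-specific conditions, with peptides at 50 μM and 50 μM ATP spiked with γ-32P-ATP. Relative sub-library phosphorylation is the ratio to the mean residue at that position.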

Chain of FAM20C, construct: aa23-end (Q8IXL6 23-584, looked up): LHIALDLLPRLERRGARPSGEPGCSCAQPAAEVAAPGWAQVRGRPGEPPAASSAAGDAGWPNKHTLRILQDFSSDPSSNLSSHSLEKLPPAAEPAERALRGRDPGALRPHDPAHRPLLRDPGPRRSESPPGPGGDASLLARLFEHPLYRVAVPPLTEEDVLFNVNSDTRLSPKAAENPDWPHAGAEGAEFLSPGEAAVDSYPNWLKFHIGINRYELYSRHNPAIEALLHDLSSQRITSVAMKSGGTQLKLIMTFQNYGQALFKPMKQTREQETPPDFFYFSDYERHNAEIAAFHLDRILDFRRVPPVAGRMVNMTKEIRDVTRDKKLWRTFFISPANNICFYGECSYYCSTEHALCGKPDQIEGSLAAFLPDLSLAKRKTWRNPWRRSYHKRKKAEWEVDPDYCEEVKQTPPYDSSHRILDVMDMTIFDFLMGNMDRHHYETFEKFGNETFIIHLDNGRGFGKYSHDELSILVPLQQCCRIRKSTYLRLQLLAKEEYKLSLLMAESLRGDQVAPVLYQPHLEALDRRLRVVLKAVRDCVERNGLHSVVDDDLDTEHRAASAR
Chain of CAMKK2, construct: Full length (Q96RR4 whole entry, looked up): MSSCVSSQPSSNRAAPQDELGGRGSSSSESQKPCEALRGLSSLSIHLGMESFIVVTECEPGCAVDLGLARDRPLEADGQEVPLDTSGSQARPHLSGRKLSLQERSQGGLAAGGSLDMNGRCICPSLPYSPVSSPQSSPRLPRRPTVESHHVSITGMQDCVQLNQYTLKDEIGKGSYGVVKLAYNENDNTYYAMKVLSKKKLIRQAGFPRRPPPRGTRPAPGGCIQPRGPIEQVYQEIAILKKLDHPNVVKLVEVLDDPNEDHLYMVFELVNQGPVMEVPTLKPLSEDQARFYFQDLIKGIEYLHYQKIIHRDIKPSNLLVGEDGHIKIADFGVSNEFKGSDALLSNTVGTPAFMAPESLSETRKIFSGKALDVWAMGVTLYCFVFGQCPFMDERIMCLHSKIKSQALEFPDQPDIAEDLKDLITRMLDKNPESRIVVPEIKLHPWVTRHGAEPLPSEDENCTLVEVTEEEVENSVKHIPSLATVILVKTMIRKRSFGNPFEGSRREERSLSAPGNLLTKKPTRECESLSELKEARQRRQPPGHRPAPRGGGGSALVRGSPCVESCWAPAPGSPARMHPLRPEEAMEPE
Chain of CLK2, construct: aa137-498 (P49760 137-498, looked up): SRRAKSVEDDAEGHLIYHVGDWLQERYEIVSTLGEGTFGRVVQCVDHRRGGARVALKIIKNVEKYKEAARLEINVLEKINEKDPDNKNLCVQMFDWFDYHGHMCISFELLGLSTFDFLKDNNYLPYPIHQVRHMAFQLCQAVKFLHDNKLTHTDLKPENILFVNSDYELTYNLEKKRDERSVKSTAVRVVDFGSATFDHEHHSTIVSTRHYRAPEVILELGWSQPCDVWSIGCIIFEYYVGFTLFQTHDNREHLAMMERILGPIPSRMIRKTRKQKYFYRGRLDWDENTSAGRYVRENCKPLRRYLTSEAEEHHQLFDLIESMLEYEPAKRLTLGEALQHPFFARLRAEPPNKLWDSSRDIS
Chain of DYRK1B, construct: Full length (Q9Y463 whole entry, looked up): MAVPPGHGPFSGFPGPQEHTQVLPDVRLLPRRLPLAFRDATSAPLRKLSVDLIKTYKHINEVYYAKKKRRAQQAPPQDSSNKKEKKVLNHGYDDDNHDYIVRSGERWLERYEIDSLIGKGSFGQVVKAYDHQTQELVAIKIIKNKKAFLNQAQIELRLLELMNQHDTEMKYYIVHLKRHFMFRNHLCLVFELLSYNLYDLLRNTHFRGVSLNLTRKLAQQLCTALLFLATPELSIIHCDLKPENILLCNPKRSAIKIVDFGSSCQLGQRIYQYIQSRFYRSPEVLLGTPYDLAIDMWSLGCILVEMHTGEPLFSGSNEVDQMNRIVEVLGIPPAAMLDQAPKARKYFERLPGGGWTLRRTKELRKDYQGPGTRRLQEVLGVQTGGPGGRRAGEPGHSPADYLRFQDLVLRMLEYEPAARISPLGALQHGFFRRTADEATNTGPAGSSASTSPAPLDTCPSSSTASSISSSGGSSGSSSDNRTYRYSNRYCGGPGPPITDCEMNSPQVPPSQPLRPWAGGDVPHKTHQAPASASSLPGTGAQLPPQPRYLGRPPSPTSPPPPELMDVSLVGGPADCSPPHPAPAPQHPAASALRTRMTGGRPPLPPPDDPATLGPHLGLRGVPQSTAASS

CAMKK2, construct: Full length (from UniProt Q96RR4)
relative phosphorylation
Settings	at +1	at +2	at +3	at +4	at -1	at -2	at -3	at -4	at -5
A fixed	1.16	0.999	0.931	0.783	1.27	0.476	1.17	0.993	1.31
D fixed	0.612	1.03	1.09	1.14	1.17	0.349	0.289	0.949	1.02
E fixed	0.647	0.701	0.995	0.774	1.24	0.313	0.317	0.905	0.843
F fixed	0.787	0.602	0.861	1.12	0.671	1.91	1.44	0.939	0.93
G fixed	0.848	1.24	1.36	1.09	0.731	0.434	0.846	1.11	1.29
H fixed	0.46	1.21	0.888	1.1	0.934	0.748	1.23	1.15	1.09
I fixed	1.27	0.734	0.702	0.589	0.46	0.558	0.672	0.481	0.529
K fixed	1.03	1.04	0.971	1.18	1.6	0.629	0.567	0.887	1.02
L fixed	1.1	0.786	0.783	0.953	0.974	2.57	0.981	0.762	0.561
M fixed	1.92	1.14	0.834	0.979	1.2	2.46	1.65	1.04	0.887
N fixed	1.02	1.4	1.22	0.991	1.15	0.594	0.66	0.95	0.917
P fixed	0.328	1.26	1.61	1.64	0.268	0.363	1.48	0.931	1.29
Q fixed	1.07	0.937	1.05	1.09	1.6	0.727	1.09	1.05	1.08
R fixed	1.18	1.32	1.04	0.852	1.65	0.885	0.856	1.11	1.21
V fixed	1.19	0.93	0.706	0.884	0.601	0.548	0.953	0.583	0.753
W fixed	1.22	0.742	0.971	0.981	0.693	0.873	1.48	1.79	1.25
Y fixed	1.18	0.927	0.988	0.861	0.786	2.56	1.32	1.37	1.02
pThr fixed	0.769	0.87	1.03	1.14	0.432	0.493	0.711	0.711	0.884
pTyr fixed	0.827	0.75	1.43	1.09	0.973	0.634	0.525	0.831	0.776

CLK2, construct: aa137-498 (from UniProt P49760)
relative phosphorylation
Settings	at +1	at +2	at +3	at +4	at -1	at -2	at -3	at -4	at -5
A fixed	0.537	1.38	0.558	0.879	1.16	1.94	0.571	1.2	1.14
D fixed	0.278	1.66	0.658	2.06	0.653	0.869	0.537	0.818	0.937
E fixed	1.31	2.38	0.614	2.16	0.846	1.79	0.471	0.964	0.865
F fixed	0.258	0.524	0.357	0.734	0.316	0.239	0.223	0.547	0.929
G fixed	0.82	1.31	0.908	0.989	1.78	1.51	0.615	1.42	1.23
H fixed	0.56	0.949	0.851	0.93	0.812	0.538	0.627	0.906	1.05
I fixed	0.388	0.352	0.246	0.491	0.194	0.159	0.176	0.441	0.412
K fixed	0.663	0.989	2.22	1.03	2.09	1.06	2.11	1.82	2.18
L fixed	0.433	0.565	0.396	0.645	0.416	0.266	0.209	0.485	0.478
M fixed	0.872	0.633	0.332	0.764	0.614	0.328	0.277	0.707	0.54
N fixed	0.464	0.968	0.95	1.18	1.07	0.522	0.473	0.897	1.05
P fixed	7.13	1.76	2.02	0.754	2.01	0.616	0.523	1.29	0.976
Q fixed	1.05	1.02	0.772	1.28	1.28	0.824	0.64	1.07	0.879
R fixed	0.767	1.08	5.17	1.12	2.29	5.66	8.88	2.84	2.51
V fixed	0.804	0.483	0.322	0.695	0.465	0.2	0.222	0.521	0.604
W fixed	0.296	0.468	0.305	0.626	0.467	0.219	0.219	0.491	0.607
Y fixed	0.367	0.468	0.314	0.668	0.543	0.266	0.23	0.582	0.614
pThr fixed	1.28	5.19	0.962	4.17	0.539	0.556	0.521	0.958	1
pTyr fixed	1.47	1.44	1.32	1.97	2.09	0.473	0.485	1.08	1.12

DYRK1B, construct: Full length (from UniProt Q9Y463)
relative phosphorylation
Settings	at +1	at +2	at +3	at +4	at -1	at -2	at -3	at -4	at -5
A fixed	0.436	0.893	0.7	0.79	1.08	2.23	0.812	0.901	0.902
D fixed	0.147	0.891	0.762	0.879	0.607	0.261	0.56	1.58	0.658
E fixed	0.161	0.8	0.932	0.829	0.626	0.28	0.445	0.719	0.554
F fixed	0.182	1.26	1.04	1.68	0.605	0.346	0.407	0.645	0.816
G fixed	0.957	0.824	1	0.925	1.14	0.889	1.33	0.933	1.15
H fixed	0.249	1.16	1.37	1.11	0.926	0.456	0.748	0.837	1.23
I fixed	0.239	1.26	0.987	1.14	0.495	0.727	0.32	0.607	0.956
K fixed	0.469	0.653	0.621	0.808	1.6	0.623	0.983	1.22	1.5
L fixed	0.222	1.28	1.25	1.1	0.747	0.926	0.491	0.756	0.785
M fixed	0.71	1.06	1.22	1.32	1.04	0.729	0.513	0.718	0.721
N fixed	0.21	1.02	0.991	0.902	0.86	0.806	0.712	0.806	0.903
P fixed	11	0.972	2.32	0.904	1.66	2.48	1.04	1.01	0.988
Q fixed	0.265	0.893	0.88	0.9	1.12	0.584	0.73	0.824	0.851
R fixed	0.947	0.77	0.713	0.811	1.93	3.56	5.96	3.05	2.61
V fixed	0.448	1.24	0.706	0.854	0.672	0.944	0.373	0.544	0.599
W fixed	0.241	1.02	0.742	1.06	0.853	0.723	0.539	0.865	0.8
Y fixed	0.161	1.01	0.77	0.994	1.02	0.43	1.03	0.987	0.983
pThr fixed	0.476	1.01	0.551	0.927	0.454	0.594	0.577	0.891	0.802
pTyr fixed	0.537	0.813	0.705	0.961	0.76	0.433	0.559	0.672	0.849

FAM20C, construct: aa23-end (from UniProt Q8IXL6)
relative phosphorylation
Settings	at +1	at +2	at +3	at +4	at -1	at -2	at -3	at -4	at -5
A fixed	1.77	0.243	0.795	0.935	1.27	1.28	0.91	1.14	1.14
D fixed	1.03	0.708	2.21	1.67	2.77	1.99	1.61	1.68	1.46
E fixed	2.15	13	2.58	1.91	1.4	1.19	1.66	1.52	1.31
F fixed	0.537	0.173	0.624	0.825	0.423	0.95	0.693	0.737	1.04
G fixed	1.61	0.214	0.518	1.45	1.31	1.28	1.45	1.26	1.05
H fixed	1.39	0.25	0.863	0.874	1.29	1.08	0.95	1.02	1.43
I fixed	0.52	0.155	1.13	1.02	0.468	0.663	0.619	0.789	0.751
K fixed	0.822	0.185	0.516	0.607	0.589	0.647	0.719	0.745	0.896
L fixed	0.54	0.159	1.07	0.788	0.485	0.581	0.968	0.826	0.832
M fixed	1.11	0.205	0.884	0.92	0.555	0.673	0.851	0.887	0.761
N fixed	1.08	0.277	0.845	0.806	2.19	1.8	1.2	1.08	1.14
P fixed	0.253	0.18	0.252	0.777	0.303	1.11	1.01	1.06	0.843
Q fixed	1.26	0.454	1.17	0.863	0.934	0.809	1.07	0.997	0.907
R fixed	0.958	0.2	0.603	0.571	0.685	0.612	0.918	0.75	0.809
V fixed	0.618	0.179	1.36	1.02	0.808	0.701	0.682	0.876	0.959
W fixed	0.696	0.208	0.831	1.05	0.839	0.795	0.861	0.895	1.01
Y fixed	0.65	0.199	0.76	0.913	0.681	0.851	0.835	0.736	0.66
pThr fixed	0.641	0.744	1.28	3.06	0.797	1.09	1.49	1.38	1.05
pTyr fixed	0.699	1.02	2.15	2.74	1.08	1.96	1.64	1.1	1.19
